The values below come from patent US20240287172A1 (SCIRHOM, published 2024).

For assay [1], the target named is T1, hiR2-FL-L589P-T7 (human, UniProt Q6PJF5 1-856).
T1 sequence: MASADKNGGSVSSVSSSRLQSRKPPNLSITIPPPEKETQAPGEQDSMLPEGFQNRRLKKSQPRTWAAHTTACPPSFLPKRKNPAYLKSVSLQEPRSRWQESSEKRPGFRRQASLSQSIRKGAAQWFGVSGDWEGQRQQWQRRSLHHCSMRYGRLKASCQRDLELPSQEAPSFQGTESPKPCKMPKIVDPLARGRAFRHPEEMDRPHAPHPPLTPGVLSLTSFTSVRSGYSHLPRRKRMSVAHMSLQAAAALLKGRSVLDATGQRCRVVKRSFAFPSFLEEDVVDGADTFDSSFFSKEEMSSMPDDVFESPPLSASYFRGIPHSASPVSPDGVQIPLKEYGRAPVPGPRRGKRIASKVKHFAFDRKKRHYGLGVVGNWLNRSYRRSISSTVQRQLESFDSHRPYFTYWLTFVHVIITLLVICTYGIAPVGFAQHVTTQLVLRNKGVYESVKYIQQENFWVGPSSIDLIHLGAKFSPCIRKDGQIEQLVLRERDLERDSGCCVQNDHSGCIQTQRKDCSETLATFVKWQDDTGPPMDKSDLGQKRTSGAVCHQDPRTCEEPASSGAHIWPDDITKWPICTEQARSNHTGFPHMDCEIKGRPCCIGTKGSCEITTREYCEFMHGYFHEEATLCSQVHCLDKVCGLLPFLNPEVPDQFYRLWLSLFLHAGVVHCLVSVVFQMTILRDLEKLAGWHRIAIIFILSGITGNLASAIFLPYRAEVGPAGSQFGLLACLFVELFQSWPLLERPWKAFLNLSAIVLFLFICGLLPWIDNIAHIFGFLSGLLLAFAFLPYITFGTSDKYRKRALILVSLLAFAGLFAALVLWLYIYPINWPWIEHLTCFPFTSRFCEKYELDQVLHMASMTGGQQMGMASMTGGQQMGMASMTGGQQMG
The experiment in a line: FACS on MEF-DKO cells.

Assay [2] addresses T2, hiR2-FL-I566E-T7 (human, UniProt Q6PJF5 1-856).
T2 construct: on MEF-DKO cells; also called hiR2-FL-1566E-T7
T2 sequence: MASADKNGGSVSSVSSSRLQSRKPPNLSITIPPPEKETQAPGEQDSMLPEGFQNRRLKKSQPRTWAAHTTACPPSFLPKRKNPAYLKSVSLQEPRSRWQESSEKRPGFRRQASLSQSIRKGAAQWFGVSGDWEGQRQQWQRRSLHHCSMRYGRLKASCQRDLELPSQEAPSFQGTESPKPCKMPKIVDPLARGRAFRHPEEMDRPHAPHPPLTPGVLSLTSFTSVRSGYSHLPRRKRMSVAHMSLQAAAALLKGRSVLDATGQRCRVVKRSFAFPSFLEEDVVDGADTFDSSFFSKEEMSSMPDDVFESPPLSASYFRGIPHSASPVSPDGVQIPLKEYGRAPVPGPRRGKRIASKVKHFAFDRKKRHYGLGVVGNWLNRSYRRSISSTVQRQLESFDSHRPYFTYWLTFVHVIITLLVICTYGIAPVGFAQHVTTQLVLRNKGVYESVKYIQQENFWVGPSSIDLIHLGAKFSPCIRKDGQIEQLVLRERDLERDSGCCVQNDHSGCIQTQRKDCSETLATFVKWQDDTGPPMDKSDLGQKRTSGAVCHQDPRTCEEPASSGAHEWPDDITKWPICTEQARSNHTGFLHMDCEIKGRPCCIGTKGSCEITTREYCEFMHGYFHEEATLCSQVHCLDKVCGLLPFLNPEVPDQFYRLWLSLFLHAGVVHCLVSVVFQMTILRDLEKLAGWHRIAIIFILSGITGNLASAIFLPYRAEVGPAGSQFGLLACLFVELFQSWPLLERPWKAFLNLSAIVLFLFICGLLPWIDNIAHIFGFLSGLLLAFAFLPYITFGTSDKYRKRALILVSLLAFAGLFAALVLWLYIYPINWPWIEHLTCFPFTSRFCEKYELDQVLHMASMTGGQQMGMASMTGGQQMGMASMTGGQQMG
The experiment in a line: FACS on MEF-DKO cells.

B1: antibody 50 (antibody, V domains shown)
VH: QVQLQQSGAELVRPGASVKVSCKASGYAFSNYLIEWVKQRPGQGLEWIGVINPGSGFTKYNEKFKGKATLTADKSSSTAYMQLSSLTSEDSAVYFCARGLYRAMDYWGQGTSVTVSS
VL: DIQMTQSPASQSASLGESVTITCLASQTIGTWLAWYQQKPGKSPQLLIYAAASLADGVPSRFSGGGSGTKFSFKISSLQAEDFVNYYCQQIYSTPYTFGGGTKLEIK
notes: mouse IgG, kappa light chain; also called clone #50; purified antibody 50
As for B1, in assay [1], the binding result is recorded as “no binding (tested: 3 µg/ml)”.

B2: antibody 5 (antibody, V domains shown)
VH: QVTLKESGPGILQPSQTLSLTCSFSGFSLSTFGMGVGWIRQPSGKGLEWLAHIWWDDEKYYNSALKSRLTISKATSKNQAFLKIANVDTADTATYYCARISNYGSNYWYFNVWGTGTTVTVSS
VL: QVVLTQSPALMSASPGEKVTMTCSAGSSVSCMYWYQQKPGSSPRVLIYDTSNLASGVPARFTGSGSGTSYSLTISRMEAEDAASYYCQQWNSYPLTFGAGTKLELK
notes: mouse IgG, kappa light chain; also called clone #5; purified antibody 5
In the case of B2, in assay [2], the binding result was “no binding (tested: 3 µg/ml)”.
